Experimental data reported in patent publication US20260158095A1, “PLANT EXTRACT AND USE THEREOF IN TOPICAL COMPOSITIONS” (TERM HELVET SA, priority 2021, published 2026).

Tested on: human keratinocyte culture
Experiment: Filopodia formation in human keratinocyte culture (rhodamine-phalloidin staining, fluorescence microscopy)
Type: cell-based
Conditions: human keratinocytes
Method: Table 2 indicates the intensity of filopodia formation (number and surface area) in vitro in four keratinocyte cultures under four operating conditions, after treatment with: • a solvent, • HB-EGF (heparin-binding epidermal growth factor), • Picrorhiza kurroa extract obtained without hydrolysis, and • Picrorhiza kurroa extract obtained following hydrolysis.
The test is performed using a human keratinocyte culture divided into four batches. Cells are treated for 1 h with the products to be tested, fixed in 4% formalin, and then stained with rhodamine-conjugated α-phalloidin (α-phalloidin has high affinity for actin filaments, and its conjugation to rhodamine makes actin filaments fluorescent [540 nm; 565 nm]). The cell morphology is then analyzed under a fluorescence microscope (FIG. 2). • A, solvent, negative (no stimulation); • B, HB-EGF (heparin-binding epidermal growth factor), reference epidermal trophic factor, 5 ng/ml; • C, Picrorhiza kurroa extract obtained without hydrolysis, 100 μg/ml; • D, Picrorhiza kurroa extract obtained following hydrolysis, 100 μg/ml.

B1: HB-EGF: heparin-binding epidermal growth factor, reference epidermal trophic factor, positive control (protein, UniProt Q99075 63-148, looked up)
Heparin-binding EGF-like …: DLQEADLDLLRVTLSSKPQALATPNKEEHGKRKKKGKGLGKKRDPCLRKYKDFCIHGECKYVKELRAPSCICHPGYHGERCHGLSL
- Visual evaluation of the production of filopodia (scale from 0 to 3) (5 ng/ml, 1 h treatment): 3
- Intensity of filopodia formation (effect in words) (HB-EGF 5 ng/ml, extracts 100 μg/ml, 1 h): intense effect
